Laboratory results reported in patent US20240301049A1 (Ablynx, published 2024).

How the values were obtained:
Experiment in all cases: cell-based or functional assay
human IL-6 = human IL-6 (human, UniProt P05231 30-212)
cyno IL-6 = biological target: T1, cyno IL-6 (cynomolgus monkey, UniProt P79341 28-212, limits assumed)
T1 sequence (looked up): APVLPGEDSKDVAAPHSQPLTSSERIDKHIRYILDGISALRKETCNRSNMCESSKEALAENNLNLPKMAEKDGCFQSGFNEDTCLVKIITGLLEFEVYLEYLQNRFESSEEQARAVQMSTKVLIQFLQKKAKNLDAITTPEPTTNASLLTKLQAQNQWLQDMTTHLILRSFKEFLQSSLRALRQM

human TNF-α = human TNF-α (human, UniProt P01375 77-233)
cyno TNF-α = cyno TNF-α (cynomolgus monkey, UniProt P79337 77-233)
Sequence of cyno TNF-α (P79337 77-233 limits assumed): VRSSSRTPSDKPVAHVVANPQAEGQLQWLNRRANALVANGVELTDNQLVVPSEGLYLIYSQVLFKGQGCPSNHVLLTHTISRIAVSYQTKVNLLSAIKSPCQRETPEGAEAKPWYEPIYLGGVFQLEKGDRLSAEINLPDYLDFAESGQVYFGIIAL

Sequence of human TNF-α (P01375 77-233 limits assumed): as the sequence (P79337 77-233 limits assumed) above, with V37L, T44R, N72T, L138R counted along it

B1: F027200167 (bispecific antibody)
chain: EVQLVESGGGVVQPGGSLRLSCAASGIIFSINAMGWYRQAPGKQRELVADIFPFGSTEYADSVKGRFTISRDNAKNTVYLQMNSLRPEDTALYYCHSYDPRGDDYWGQGTLVTVSSGGGGSGGGSEVQLVESGGGVVQPGGSLRLSCAASGRTFSSYVMGWFRQAPGKEREFVSTINWAGSRGYYADSVKGRFTISRDNAKNTVYLQMNSLRPEDTALYYCAASAGGFLVPRVGQGYDYWGQGTLVTVSSGGGGSGGGSEVQLVESGGGVVQPGGSLRLSCAASGFTFRSFGMSWVRQAPGKGPEWVSSISGSGSDTLYADSVKGRFTISRDNSKNTLYLQMNSLRPEDTALYYCTIGGSLSRSSQGTLVTVSSGGGGSGGGSEVQLVESGGGVVQPGGSLRLSCTASGFTFSTADMGWFRQAPGKGREFVARISGIDGTTYYDEPVKGRFTISRDNSKNTVYLQMNSLRPEDTALYYCRSPRYADQWSAYDYWGQGTLVKVSS
For B1, the “IC50 hIL-6 TF1 proliferation assay” value (human IL-6) was 1.27 nM, the “Ratio IC50 cyno IL-6/hIL-6” value (cyno IL-6) was 2.5 ratio and the “IC50 hTNF-α Nfkb assay” value (human TNF-α) was 0.171 nM. For the same binder, the “Ratio IC50 cyno TNFα/hTNFα” value (cyno TNF-α) was 3.1 ratio.

B2: F027200989 (bispecific antibody)
chain: EVQLVESGGGVVQPGGSLRLSCTASGFTFSTADMGWFRQAPGKGREFVARISGIDGTTYYDEPVKGRFTISRDNSKNTVYLQMNSLRPEDTALYYCRSPRYADQWSAYDYWGQGTLVKVSSGGGGSGGGSEVQLVESGGGVVQPGGSLRLSCAASGFSLDYYGVGWFRQAPGKEREGVSCISSSEGDTYYADSVKGRFTISRDNAKNTVYLQMNSLRPEDTALYYCATDLSDYGVCSRWPSPYDYWGQGTLVKVSSGGGGSGGGSEVQLVESGGGVVQPGGSLRLSCAASGFTFRSFGMSWVRQAPGKGPEWVSSISGSGSDTLYADSVKGRFTISRDNSKNTLYLQMNSLRPEDTALYYCTIGGSLSRSSQGTLVTVSSGGGGSGGGSEVQLVESGGGVVQPGGSLRLSCAASGFTLAYYAIGWFRQAPGKEREGVSCISGSVGTTYYADSVKGRFTISRDNAKNTVYLQMNSLRPEDTALYYCVRSSWFDCGVQGRDLGNEYDYRGQGTLVTVSS
With B2 the “IC50 hIL-6 TF1 proliferation assay” value (human IL-6) was 0.127 nM and the “Ratio IC50 cyno IL-6/hIL-6” value (cyno IL-6) was 38.3 ratio.

B3: F027201028 (bispecific antibody)
chain: DVQLVESGGGVVQPGGSLRLSCAASGRTFSNYAMAWFRQAPGKEREFVAVISYAGGRTYYADSVKGRFTISRDNAKNTVYLQMNSLRPEDTALYYCAAVDSPLIATHPRGYDYWGQGTLVTVSSGGGGSGGGSEVQLVESGGGVVQPGGSLRLSCAASGIIFSINAMGWYRQAPGKQRELVADIFPFGSTEYADSVKGRFTISRDNAKNTVYLQMNSLRPEDTALYYCHSYDPRGDDYWGQGTLVTVSSGGGGSGGGSEVQLVESGGGVVQPGGSLRLSCAASGFTFRSFGMSWVRQAPGKGPEWVSSISGSGSDTLYADSVKGRFTISRDNSKNTLYLQMNSLRPEDTALYYCTIGGSLSRSSQGTLVTVSSGGGGSGGGSEVQLVESGGGVVQPGGSLRLSCTASGFTFSTADMGWFRQAPGKGREFVARISGIDGTTYYDEPVKGRFTISRDNSKNTVYLQMNSLRPEDTALYYCRSPRYADQWSAYDYWGQGTLVKVSS
In the case of B3, the “IC50 hIL-6 TF1 proliferation assay” value (human IL-6) is reported as 0.293 nM, the “Ratio IC50 cyno IL-6/hIL-6” value (cyno IL-6) is reported as 1.1 ratio and the “IC50 hTNF-α Nfkb assay” value (human TNF-α) is reported as 0.061 nM. The “Ratio IC50 cyno TNFα/hTNFα” value (cyno TNF-α) was 3.1 ratio.

B4: F027201027 (bispecific antibody)
chain: DVQLVESGGGVVQPGGSLRLSCAASGRTFSNYAMAWFRQAPGKEREFVAVISYAGGRTYYADSVKGRFTISRDNAKNTVYLQMNSLRPEDTALYYCAAVDSPLIATHPRGYDYWGQGTLVTVSSGGGGSGGGSEVQLVESGGGVVQPGGSLRLSCAASGFTFRSFGMSWVRQAPGKGPEWVSSISGSGSDTLYADSVKGRFTISRDNSKNTLYLQMNSLRPEDTALYYCTIGGSLSRSSQGTLVTVSSGGGGSGGGSEVQLVESGGGVVQPGGSLRLSCAASGIIFSINAMGWYRQAPGKQRELVADIFPFGSTEYADSVKGRFTISRDNAKNTVYLQMNSLRPEDTALYYCHSYDPRGDDYWGQGTLVTVSSGGGGSGGGSEVQLVESGGGVVQPGGSLRLSCTASGFTFSTADMGWFRQAPGKGREFVARISGIDGTTYYDEPVKGRFTISRDNSKNTVYLQMNSLRPEDTALYYCRSPRYADQWSAYDYWGQGTLVKVSS
With B4 the “IC50 hIL-6 TF1 proliferation assay” value (human IL-6) was 0.317 nM, the “Ratio IC50 cyno IL-6/hIL-6” value (cyno IL-6) was 0.6 ratio and the “IC50 hTNF-α Nfkb assay” value (human TNF-α) was 0.0603 nM. For the same binder, the “Ratio IC50 cyno TNFα/hTNFα” value (cyno TNF-α) was 2.5 ratio.

B5: F027200153 (bispecific antibody)
chain: EVQLVESGGGVVQPGGSLRLSCTASGFTFSTADMGWFRQAPGKGREFVARISGIDGTTYYDEPVKGRFTISRDNSKNTVYLQMNSLRPEDTALYYCRSPRYADQWSAYDYWGQGTLVKVSSGGGGSGGGSEVQLVESGGGVVQPGGSLRLSCAASGFTFRSFGMSWVRQAPGKGPEWVSSISGSGSDTLYADSVKGRFTISRDNSKNTLYLQMNSLRPEDTALYYCTIGGSLSRSSQGTLVTVSSGGGGSGGGSEVQLVESGGGVVQPGGSLRLSCAASGIIFSINAMGWYRQAPGKQRELVADIFPFGSTEYADSVKGRFTISRDNAKNTVYLQMNSLRPEDTALYYCHSYDPRGDDYWGQGTLVTVSSGGGGSGGGSEVQLVESGGGVVQPGGSLRLSCAASGRTFSSYVMGWFRQAPGKEREFVSTINWAGSRGYYADSVKGRFTISRDNAKNTVYLQMNSLRPEDTALYYCAASAGGFLVPRVGQGYDYWGQGTLVTVSS
With B5 the “IC50 hIL-6 TF1 proliferation assay” value (human IL-6) was 1.03 nM, the “Ratio IC50 cyno IL-6/hIL-6” value (cyno IL-6) was 2.5 ratio and the “IC50 hTNF-α Nfkb assay” value (human TNF-α) was 0.139 nM. The “Ratio IC50 cyno TNFα/hTNFα” value (cyno TNF-α) was 2.7 ratio.

B6: F027201026 (bispecific antibody)
chain: EVQLVESGGGVVQPGGSLRLSCTASGFTFSTADMGWFRQAPGKGREFVARISGIDGTTYYDEPVKGRFTISRDNSKNTVYLQMNSLRPEDTALYYCRSPRYADQWSAYDYWGQGTLVKVSSGGGGSGGGSEVQLVESGGGVVQPGGSLRLSCAASGFTFRSFGMSWVRQAPGKGPEWVSSISGSGSDTLYADSVKGRFTISRDNSKNTLYLQMNSLRPEDTALYYCTIGGSLSRSSQGTLVTVSSGGGGSGGGSDVQLVESGGGVVQPGGSLRLSCAASGRTFSNYAMAWFRQAPGKEREFVAVISYAGGRTYYADSVKGRFTISRDNAKNTVYLQMNSLRPEDTALYYCAAVDSPLIATHPRGYDYWGQGTLVTVSSGGGGSGGGSEVQLVESGGGVVQPGGSLRLSCAASGIIFSINAMGWYRQAPGKQRELVADIFPFGSTEYADSVKGRFTISRDNAKNTVYLQMNSLRPEDTALYYCHSYDPRGDDYWGQGTLVTVSS
In the case of B6, the “IC50 hIL-6 TF1 proliferation assay” value (human IL-6) is reported as 0.303 nM, the “Ratio IC50 cyno IL-6/hIL-6” value (cyno IL-6) is reported as 1.2 ratio and the “IC50 hTNF-α Nfkb assay” value (human TNF-α) is reported as 0.0852 nM. For the same binder, the “Ratio IC50 cyno TNFα/hTNFα” value (cyno TNF-α) was 2.2 ratio.

B7: F027200987 (bispecific antibody)
chain: EVQLVESGGGVVQPGGSLRLSCAASGFSLDYYGVGWFRQAPGKEREGVSCISSSEGDTYYADSVKGRFTISRDNAKNTVYLQMNSLRPEDTALYYCATDLSDYGVCSRWPSPYDYWGQGTLVKVSSGGGGSGGGSEVQLVESGGGVVQPGGSLRLSCAASGFTFRSFGMSWVRQAPGKGPEWVSSISGSGSDTLYADSVKGRFTISRDNSKNTLYLQMNSLRPEDTALYYCTIGGSLSRSSQGTLVTVSSGGGGSGGGSEVQLVESGGGVVQPGGSLRLSCAASGFTLAYYAIGWFRQAPGKEREGVSCISGSVGTTYYADSVKGRFTISRDNAKNTVYLQMNSLRPEDTALYYCVRSSWFDCGVQGRDLGNEYDYRGQGTLVTVSSGGGGSGGGSEVQLVESGGGVVQPGGSLRLSCTASGFTFSTADMGWFRQAPGKGREFVARISGIDGTTYYDEPVKGRFTISRDNSKNTVYLQMNSLRPEDTALYYCRSPRYADQWSAYDYWGQGTLVKVSS
With B7 the “IC50 hIL-6 TF1 proliferation assay” value (human IL-6) was 0.143 nM and the “Ratio IC50 cyno IL-6/hIL-6” value (cyno IL-6) was 29.4 ratio.
